Measured values: publication PMC11905881, “Incorporation of polymerizable linkers into aptamers for high-affinity nanoscale molecularly imprinted polymer hybrids: analysis of positional selectivity†”

What was measured:
[1] = target: trypsin (UniProt P00760); test: SPR; conditions: embedded in imprinted polymer nanoparticle, SPR: PBST (10 mM phosphate buffered saline, pH 7.4, 0.01% Tween 20), 25 °C, nanoparticles immobilized on carboxymethyl dextran Au chips, protein 4-64 nM, n = 3
[2] = target: lysozyme (UniProt P00698 19-147); test: SPR; lysozyme-imprinted polymer hybrid; SPR: PBST (10 mM phosphate buffered saline, pH 7.4, 0.01% Tween 20), 25 °C; nanoparticles immobilized on carboxymethyl dextran Au chips, protein 4-64 nM; n = 3; conditions: protein: commercial
lysozyme, sequence (P00698 19-147): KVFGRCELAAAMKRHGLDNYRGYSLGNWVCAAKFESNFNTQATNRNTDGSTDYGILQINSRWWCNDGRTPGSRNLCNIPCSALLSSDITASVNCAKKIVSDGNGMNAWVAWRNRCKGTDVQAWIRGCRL

trypsin, sequence (P00760 24-246): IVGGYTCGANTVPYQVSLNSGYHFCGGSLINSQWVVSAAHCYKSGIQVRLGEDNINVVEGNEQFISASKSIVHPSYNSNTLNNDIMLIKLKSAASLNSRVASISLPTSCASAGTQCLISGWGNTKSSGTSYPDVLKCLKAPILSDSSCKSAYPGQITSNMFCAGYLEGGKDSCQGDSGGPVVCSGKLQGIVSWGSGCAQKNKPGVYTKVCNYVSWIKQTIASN

ATCTACGAATTCATCAGGGCTAAAGAGTGCAGAGTTACTTAG [AptaMIP-1 oligo]
Kd ([1]; six carboxy-dT (ester or amide, polymerizable), throughout): 4.68 µM

ATCTACGAATTCATCAGGGCTAAAGAGTGCAGAGTTACTTAG [AptaMIP-3 oligo]
Kd ([1]; three carboxy-dT, both ends and centre): 9.75 µM

ATCTACGAATTCATCAGGGCTAAAGAGTGCAGAGTTACTTAG [AptaMIP-2 oligo]
Kd ([1]; four carboxy-dT, evenly spaced, no central linker): 2.33 µM

ATCTACGAATTCATCAGGGCTAAAGAGTGCAGAGTTACTTAG [AptaMIP-8 oligo]
Kd ([1]; one central carboxy-dT): 4.17 µM

ATCTACGAATTCATCAGGGCTAAAGAGTGCAGAGTTACTTAG [AptaMIP-7 oligo]
Kd ([1]; one carboxy-dT at 5' end): 4.89 µM

ATCTACGAATTCATCAGGGCTAAAGAGTGCAGAGTTACTTAG [AptaMIP-5 oligo]
Kd ([1]; two carboxy-dT, one at each end (positions 1 and 6 of Fig. 1)): 8.95 µM

ATCTACGAATTCATCAGGGCTAAAGAGTGCAGAGTTACTTAG [AptaMIP-6 oligo]
Kd ([1]; one carboxy-dT at 3' end): 4.68 µM

ATCTACGAATTCATCAGGGCTAAAGAGTGCAGAGTTACTTAG [AptaMIP-4 oligo]
Kd ([1]; three carboxy-dT near centre (9 bases free at 3', 14 at 5')): 9.87 µM

B1: AptaMIP-1 oligo (ssDNA)
DNA: ATCTACGAATTCATCAGGGCTAAAGAGTGCAGAGTTACTTAG
modifications: six carboxy-dT (ester or amide, polymerizable), throughout; embedded in imprinted polymer nanoparticle
Kd [2]: 0.00128 µM

B2: AptaMIP-3 oligo (ssDNA)
DNA: ATCTACGAATTCATCAGGGCTAAAGAGTGCAGAGTTACTTAG
modifications: three carboxy-dT, both ends and centre; embedded in imprinted polymer nanoparticle
Kd [2]: 0.0012 µM

B3: AptaMIP-4 oligo (ssDNA)
DNA: ATCTACGAATTCATCAGGGCTAAAGAGTGCAGAGTTACTTAG
modifications: three carboxy-dT near centre (9 bases free at 3', 14 at 5'); embedded in imprinted polymer nanoparticle
Kd [2]: 0.0427 µM
